Assay [1] deals with murine TPO receptor on Balb/C mouse marrow cells (mouse) (UniProt Q08351). Nature of the assay: cell-based or functional assay.
Assay [2] concerns the target T1, full length human TPO-R on transfected Ba/F3 cells (human, UniProt P40238 26-635).
T1 sequence (looked up): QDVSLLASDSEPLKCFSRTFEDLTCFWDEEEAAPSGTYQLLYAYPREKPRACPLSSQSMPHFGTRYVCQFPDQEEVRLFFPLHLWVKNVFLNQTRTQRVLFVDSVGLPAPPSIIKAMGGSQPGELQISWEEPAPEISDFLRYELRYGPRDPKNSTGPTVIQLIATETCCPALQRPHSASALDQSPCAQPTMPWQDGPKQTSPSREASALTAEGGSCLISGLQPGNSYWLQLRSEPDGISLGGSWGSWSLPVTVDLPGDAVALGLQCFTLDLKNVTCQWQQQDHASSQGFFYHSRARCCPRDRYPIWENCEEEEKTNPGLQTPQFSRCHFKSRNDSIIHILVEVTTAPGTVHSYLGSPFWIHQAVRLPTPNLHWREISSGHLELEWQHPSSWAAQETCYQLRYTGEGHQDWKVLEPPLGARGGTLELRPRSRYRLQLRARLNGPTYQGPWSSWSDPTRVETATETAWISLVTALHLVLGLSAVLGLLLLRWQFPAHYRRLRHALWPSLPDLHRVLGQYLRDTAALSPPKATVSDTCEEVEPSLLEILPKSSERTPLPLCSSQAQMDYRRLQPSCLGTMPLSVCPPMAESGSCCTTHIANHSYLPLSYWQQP
Nature of the assay: cell-based or functional assay.

Where no end group is shown, it is not given here.

In assay [1], “rhuTPO (from UniProt P40225 22-353) (ligand)” had a colonies of 3-5 large cells, mouse marrow in methylcellulose, 1 nM TPO, #1-1 of 15 colonies; a colonies of 3-5 large cells, mouse marrow in methylcellulose, 1 nM TPO, #1-2 of 12 colonies; a colonies of 3-5 large cells, mouse marrow in methylcellulose, 1 nM TPO, #2-1 of 16 colonies; a colonies of 3-5 large cells, mouse marrow in methylcellulose, 1 nM TPO, #2-2 of 13 colonies. Further, in assay [1], the colonies of 6-12 large cells, mouse marrow in methylcellulose, 1 nM TPO, #1-1 stood at 6 colonies; the colonies of 6-12 large cells, mouse marrow in methylcellulose, 1 nM TPO, #1-2 was found to be 1 colonies; the colonies of 6-12 large cells, mouse marrow in methylcellulose, 1 nM TPO, #2-1 was determined as 8 colonies; the colonies of 6-12 large cells, mouse marrow in methylcellulose, 1 nM TPO, #2-2 worked out at 3 colonies. Regarding CNRSQLLAAC (not fully specified; cysteine pairing not given here) [Table 8 compound, drawing CHEM-US-00046], the “activity (assay not given)” value in assay [2] is > 10 µm.

As for CSLKEFLHSGLMQC (not fully specified; cysteine pairing not given here) [Table 8 compound, drawing CHEM-US-00056], the “activity (assay not given)” value in assay [2] is > 10 µm. Regarding CTLAEFLASGVEQC (not fully specified; cysteine pairing not given here) [Table 8 compound, drawing CHEM-US-00057], the “activity (assay not given)” value in assay [2] is > 10 µm. As for CTRAQFLKGC (not fully specified; cysteine pairing not given here) [Table 8 compound, drawing CHEM-US-00044], the “activity (assay not given)” value in assay [2] was > 10 µm. In the case of CLTGPFVTQWLYEC (not fully specified; cysteine pairing not given here) [Table 8 compound, drawing CHEM-US-00052], the “activity (assay not given)” value in assay [2] was > 10 µm. In the case of REGPTLRQWM (not fully specified) [Table 8 compound, drawing CHEM-US-00060], in assay [2], the “activity (assay not given)” value is > 10 µm. Same read-out and setting: to CTLGQWLQMGMC (not fully specified; cysteine pairing not given here) [Table 8 compound, drawing CHEM-US-00051] belongs > 10 µm; to CTLKEWLVSHEVWC (not fully specified; cysteine pairing not given here) [Table 8 compound, drawing CHEM-US-00058], > 10 µm. The same measure, in the same setting: to CNINQLRSIC (not fully specified; cysteine pairing not given here) [Table 8 compound, drawing CHEM-US-00045] belongs > 10 µm; to CLLSEFLAGQQC (not fully specified; cysteine pairing not given here) [Table 8 compound, drawing CHEM-US-00049], > 10 µm; to CTSTQWLLAC (not fully specified; cysteine pairing not given here) [Table 8 compound, drawing CHEM-US-00047], > 10 µm. In the case of CGTEGPTLSTWLDC (not fully specified; cysteine pairing not given here) [Table 8 compound, drawing CHEM-US-00054], in assay [2], the “activity (assay not given)” value was > 10 µm. The same measure, in the same setting: to REGPTLRQWLMSRS (not fully specified) [Table 8 compound, drawing CHEM-US-00061] belongs > 10 µm; to CTLREFLDPTTAVC (not fully specified; cysteine pairing not given here) [Table 8 compound, drawing CHEM-US-00053], > 10 µm; to CQRADLINFC (not fully specified; cysteine pairing not given here) [Table 8 compound, drawing CHEM-US-00048], > 10 µm.

As for CELVGPSLMSWLTC (not fully specified; cysteine pairing not given here) [Table 8 compound, drawing CHEM-US-00055], in assay [2], the “activity (assay not given)” value was > 10 µm.
